Source: article PMC6633398

Tests used:
[1] = biological target: CASP (encoded by CUX1; isoform 4) (UniProt Q13948); test: co-immunoprecipitation (IP: c-Myc) from cytosol, western blot quantification; conditions: absence of detergent, n=4, parent: est. 1.0, read off a plot
[2] = biological target: golgin-84 (also known as GOLGA5) (UniProt Q8TBA6); test: as above; conditions: absence of detergent, n=4, parent: est. 1.0, read off a plot
Sequence of golgin-84 (also known as GOLGA5) (Q8TBA6 whole entry): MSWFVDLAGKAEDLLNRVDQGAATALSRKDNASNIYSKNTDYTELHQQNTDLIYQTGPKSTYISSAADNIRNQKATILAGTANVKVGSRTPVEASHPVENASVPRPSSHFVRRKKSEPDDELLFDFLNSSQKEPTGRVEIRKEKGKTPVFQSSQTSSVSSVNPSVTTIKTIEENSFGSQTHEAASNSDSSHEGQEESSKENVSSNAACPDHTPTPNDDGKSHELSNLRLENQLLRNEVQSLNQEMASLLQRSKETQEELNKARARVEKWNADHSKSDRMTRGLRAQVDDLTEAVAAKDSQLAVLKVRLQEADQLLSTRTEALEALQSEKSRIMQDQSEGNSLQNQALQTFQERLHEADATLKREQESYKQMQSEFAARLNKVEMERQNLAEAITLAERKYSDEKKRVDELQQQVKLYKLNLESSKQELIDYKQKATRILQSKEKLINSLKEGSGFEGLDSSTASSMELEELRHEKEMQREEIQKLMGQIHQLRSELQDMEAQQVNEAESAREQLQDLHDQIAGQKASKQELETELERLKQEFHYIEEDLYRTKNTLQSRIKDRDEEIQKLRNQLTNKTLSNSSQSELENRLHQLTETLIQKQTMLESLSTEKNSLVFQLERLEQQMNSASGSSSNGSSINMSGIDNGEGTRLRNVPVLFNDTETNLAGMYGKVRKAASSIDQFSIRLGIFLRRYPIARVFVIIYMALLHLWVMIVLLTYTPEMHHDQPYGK

Sequence of CASP (encoded by CUX1; isoform 4) (Q13948 whole entry, canonical isoform): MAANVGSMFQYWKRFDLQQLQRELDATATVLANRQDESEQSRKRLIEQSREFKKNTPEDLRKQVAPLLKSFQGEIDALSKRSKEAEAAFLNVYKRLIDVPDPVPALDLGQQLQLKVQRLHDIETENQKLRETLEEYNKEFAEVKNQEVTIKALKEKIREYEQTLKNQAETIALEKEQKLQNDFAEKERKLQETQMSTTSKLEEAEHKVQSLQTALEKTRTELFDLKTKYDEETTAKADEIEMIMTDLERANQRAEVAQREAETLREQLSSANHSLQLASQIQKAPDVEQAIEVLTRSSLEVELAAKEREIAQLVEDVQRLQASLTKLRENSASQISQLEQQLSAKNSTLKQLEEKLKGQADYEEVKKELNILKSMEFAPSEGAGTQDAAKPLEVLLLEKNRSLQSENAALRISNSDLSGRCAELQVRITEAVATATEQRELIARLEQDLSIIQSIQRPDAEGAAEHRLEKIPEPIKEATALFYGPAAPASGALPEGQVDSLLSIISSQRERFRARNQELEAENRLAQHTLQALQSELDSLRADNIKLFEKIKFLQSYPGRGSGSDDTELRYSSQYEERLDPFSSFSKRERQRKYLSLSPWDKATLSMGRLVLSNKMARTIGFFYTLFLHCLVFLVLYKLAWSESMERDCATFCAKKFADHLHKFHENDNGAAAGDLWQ
Sequence of c-Myc–TRC40 (wild-type TRC40, also known as ASNA1), O43681 D74E (O43681 whole entry D74E): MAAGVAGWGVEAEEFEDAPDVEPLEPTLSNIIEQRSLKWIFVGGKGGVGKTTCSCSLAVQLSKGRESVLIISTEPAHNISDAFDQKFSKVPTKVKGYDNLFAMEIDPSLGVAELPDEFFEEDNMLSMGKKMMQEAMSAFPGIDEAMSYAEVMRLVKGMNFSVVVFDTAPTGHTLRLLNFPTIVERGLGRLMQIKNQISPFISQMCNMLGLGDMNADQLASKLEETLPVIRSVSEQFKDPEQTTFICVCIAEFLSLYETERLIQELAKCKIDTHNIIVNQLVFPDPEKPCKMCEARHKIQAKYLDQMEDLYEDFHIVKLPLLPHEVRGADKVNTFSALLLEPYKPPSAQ
Sequence of c-Myc–TRC40 (wild-type TRC40, also known as ASNA1), O43681 D74E; L190D; I193D (O43681 whole entry D74E/L190D/I193D): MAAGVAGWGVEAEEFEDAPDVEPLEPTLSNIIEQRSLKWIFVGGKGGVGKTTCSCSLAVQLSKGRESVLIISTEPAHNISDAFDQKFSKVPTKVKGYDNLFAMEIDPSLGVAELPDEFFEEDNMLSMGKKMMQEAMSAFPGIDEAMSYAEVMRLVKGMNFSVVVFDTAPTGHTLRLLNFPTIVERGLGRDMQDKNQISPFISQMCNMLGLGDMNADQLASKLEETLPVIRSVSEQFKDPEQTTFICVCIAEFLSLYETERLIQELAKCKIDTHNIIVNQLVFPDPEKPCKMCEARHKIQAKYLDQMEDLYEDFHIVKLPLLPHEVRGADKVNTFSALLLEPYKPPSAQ
Sequence of c-Myc–TRC40 (wild-type TRC40, also known as ASNA1), O43681 D74E; L190K; I193K (O43681 whole entry D74E/L190K/I193K): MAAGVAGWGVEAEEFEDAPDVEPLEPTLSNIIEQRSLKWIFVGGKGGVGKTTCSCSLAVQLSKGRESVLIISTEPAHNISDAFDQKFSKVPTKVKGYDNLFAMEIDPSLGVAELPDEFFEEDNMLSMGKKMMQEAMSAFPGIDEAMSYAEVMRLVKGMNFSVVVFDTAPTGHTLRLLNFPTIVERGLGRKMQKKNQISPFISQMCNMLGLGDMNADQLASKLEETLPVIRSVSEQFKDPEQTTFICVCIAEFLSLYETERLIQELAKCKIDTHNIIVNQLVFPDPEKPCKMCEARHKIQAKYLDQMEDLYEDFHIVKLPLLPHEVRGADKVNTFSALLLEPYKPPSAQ

ratio to parent [1]	ratio to parent [2]	Substance
23	21	c-Myc–TRC40 (wild-type TRC40, also known as ASNA1), O43681 D74E; L190D; I193D
4.7	13	c-Myc–TRC40 (wild-type TRC40, also known as ASNA1), O43681 D74E
14	9	c-Myc–TRC40 (wild-type TRC40, also known as ASNA1), O43681 D74E; L190K; I193K
